Measured values reported in US20220251222A1 (Johns Hopkins, published 2022).

Experiments:
[1] = target: T1, IL-8RB expressed on lentivirally transduced HEK 293T cells (UniProt P25025 1-360, limits assumed); experiment: competition with 400 nM His-tagged IL-8 on IL-6Rα-/IL-8R+ HEK 293T cells, flow cytometry
T1 construct: whole, on cells; also called IL-8R^+ cells; IL-6Rα^-/IL-8R^+ HEK 293T cells
T1 sequence (looked up): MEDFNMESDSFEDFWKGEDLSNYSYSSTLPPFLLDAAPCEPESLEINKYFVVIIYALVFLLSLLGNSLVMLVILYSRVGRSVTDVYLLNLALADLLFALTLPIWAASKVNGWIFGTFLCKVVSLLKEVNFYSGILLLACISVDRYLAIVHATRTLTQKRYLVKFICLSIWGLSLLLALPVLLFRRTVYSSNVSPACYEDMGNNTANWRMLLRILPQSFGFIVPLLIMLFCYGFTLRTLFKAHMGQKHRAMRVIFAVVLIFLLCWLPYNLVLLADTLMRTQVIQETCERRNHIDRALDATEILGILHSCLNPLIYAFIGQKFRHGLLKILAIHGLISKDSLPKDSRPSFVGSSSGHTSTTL
Description: IL-6Rα⁺/IL-8R⁻ and IL-6Rα⁻/IL-8R⁺ HEK 293T cells were cultured as previously described, and were trypsinized, resuspended in PBSA, and aliquoted into 96-well plates (2×10⁵ cells per well). IL-6Rα⁺/IL-8R⁻ 293T cells were incubated with titrations of various monoclonal or bispecific antibodies in the presence of saturating concentration of biotinylated IL-6 (100 nM) (Acro Biosystem, cat #: IL6-H8218-25UG) for 2 hr at 4° C. with rotation. Cells were then washed and incubated with 1:200 dilution of Alexa Fluor 647-conjugated streptavidin (Fisher Scientific, cat #: S21374) in PBSA for 15 min at 4° C. After a final wash, cells were resuspended in PBSA and analyzed on a CytoFLEX flow cytometer (Beckman Coulter). Curves were fitted to a first-order logistic model and IC₅₀ values were calculated using GraphPad Prism data analysis software. Mean fluorescence intensity (MFI) of unstimulated cells was subtracted. Similarly, IL-6Rα⁻/IL-8R⁺ 293T cells were incubated with titrations of various monoclonal or bispecific antibodies with saturating concentration of His-tagged IL-8 (400 nM) (Sino Biological, cat #: 10098-H08Y-100) for 2 hr at 4° C. with rotation. […] After a final wash, cells were resuspended in PBSA and analyzed on a CytoFLEX flow cytometer (Beckman Coulter). Curves were fitted to a first-order logistic model and IC₅₀ values were calculated using GraphPad Prism data analysis software. […]

[2] = target: T1, IL-8RB expressed on lentivirally …; experiment: flow cytometry titration on IL-6Rα+/IL-8R+ HEK 293T cells; IL-6Rα+/IL-8R+ 293T cells (FIG. 7C)
Description: (§1) HEK 293T cells were cultured in Dulbecco's modified Eagle's medium (DMEM, Mediatech) supplemented with 10% (Hyclone), 2 mM L-glutamine and 100 U/mL penicillin-streptomycin (Gibco). For surface binding assays, IL-6Rα⁺/IL-8R⁻, IL-6Rα⁻/IL-8R⁺, IL-6Rα⁺/IL-8R⁺, and […] HEK 293T cells were trypsinized for detachment, resuspended in PBSA, and then aliquoted into 96-well plates (1×10⁵ cells per well). Cells were incubated with titrations of various monoclonal or bispecific antibodies for 2 hr at 4° C. with rotation. Cells were then washed and incubated with a 1:50 dilution of fluorescein isothiocyanate (FITC)-conjugated anti-human IgG1 antibody (Sigma-Aldrich, Clone 8c/6-39) in PBSA for 15 min at 4° C. After a final wash, cells were resuspended in PBSA and analyzed on a CytoFLEX flow cytometer (Beckman Coulter). Binding isotherms were fitted to a first-order logistic model and KD values were calculated using GraphPad Prism data analysis software. Mean fluorescence intensity (MFI) of unstimulated cells was subtracted. […]
(§2) To determine whether engineered bispecific binding agents BS1 and BS2 specifically engage target antigens in a physiologically relevant context, antibody binding to IL-6Rα⁺/IL-8R⁻, IL-6Rα⁻/IL-8R⁺, IL-6Rα⁺/IL-8R⁺, and IL-6Rα⁻/IL-8R⁻ lentivirally transduced HEK 293T cells was measured via flow cytometry. […]

[3] = target: T2, IL-6Rα expressed on lentivirally transduced HEK 293T cells (UniProt P08887 20-468, limits assumed); experiment: flow cytometry binding titration on IL-6R+/IL-8R- HEK 293T cells, detected with FITC anti-human IgG1
T2 construct: whole, on cells; also called IL-6Rα^+ cells; IL-6Rα^+/IL-8R^- HEK 293T cells
T2 sequence (looked up): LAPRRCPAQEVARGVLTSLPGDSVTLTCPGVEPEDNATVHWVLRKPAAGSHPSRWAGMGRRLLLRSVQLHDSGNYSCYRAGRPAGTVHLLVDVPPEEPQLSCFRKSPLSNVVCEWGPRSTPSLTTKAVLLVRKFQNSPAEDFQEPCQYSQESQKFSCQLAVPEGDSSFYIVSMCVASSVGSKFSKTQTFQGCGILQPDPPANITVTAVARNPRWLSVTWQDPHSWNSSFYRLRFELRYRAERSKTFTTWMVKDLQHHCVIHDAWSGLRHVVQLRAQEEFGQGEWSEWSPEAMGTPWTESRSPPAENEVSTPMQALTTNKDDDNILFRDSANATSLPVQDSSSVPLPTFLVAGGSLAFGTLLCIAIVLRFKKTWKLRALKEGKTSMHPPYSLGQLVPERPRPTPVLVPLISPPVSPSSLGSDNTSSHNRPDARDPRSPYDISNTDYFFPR
Description: as §1, §2

[4] = target: T1, IL-8RB expressed on lentivirally …; experiment: flow cytometry binding titration on IL-6R-/IL-8R+ HEK 293T cells, detected with FITC anti-human IgG1
Description: as §1, §2

[5] = target: T3, human IL-6Rα extracellular domain (ECD), residues 89-303 of the mature protein, with C-terminal biotin … (human, UniProt P08887 108-322, biotinylated with BirA ligase on the biotin acceptor peptide); experiment: equilibrium bio-layer interferometry titration, biotinylated human IL-6Rα ECD immobilized on streptavidin tips
T3 construct: range 89-303; The range 89-303 counts on the mature protein, not on the precursor; Any linkers between the ECD, BAP and His tag are not described; also called IL-6Rα ECD; recombinant IL-6Rα
T3 sequence: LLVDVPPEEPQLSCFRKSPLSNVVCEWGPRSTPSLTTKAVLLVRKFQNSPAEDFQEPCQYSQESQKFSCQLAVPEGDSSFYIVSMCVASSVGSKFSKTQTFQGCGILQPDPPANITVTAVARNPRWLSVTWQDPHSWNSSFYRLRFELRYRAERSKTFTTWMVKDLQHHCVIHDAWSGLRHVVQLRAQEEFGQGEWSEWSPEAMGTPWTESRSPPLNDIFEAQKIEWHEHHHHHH
Description: Biotinylated human IL-6Rα ECD was immobilized to streptavidin-coated tips for analysis on an Octet® Red96 BLI instrument (ForteBio). Less than 5 signal units (nm) of receptor was immobilized to minimize mass transfer effects. Tips were exposed to serial dilutions of the anti-IL-6R antibody tocilizumab, the anti-IL-8R antibody 10H2, BS1, or BS2 in a 96-well plate for 300 s and dissociation was measured for 600 s. Surface regeneration for all interactions was conducted using 15 s exposure to 0.1 M glycine pH 3.0. Experiments were carried out in PBSA (phosphate-buffered saline [PBS] pH 7.3 plus 0.1% bovine serum albumin [BSA, Thermo]) at 25° C. Data was visualized and processed using the Octet® Data Analysis software version 7.1 (ForteBio). Equilibrium titration curve fitting and equilibrium dissociation constant (KD) value determination was implemented in GraphPad Prism software using a first-order logistic model. Experiments were reproduced two times with similar results.
To confirm functionality of our bispecific agents, antibodies were titrated against recombinant IL-6Rα via BLI. […] Moreover, both tocilizumab-containing engineered bispecific binding agents also bound IL-6Rα (FIG. 5).

B1: 10H2, recombinant monoclonal hIgG1 (anti-IL-8RB) (antibody, V domains shown)
VH: EVQLVETGGRLVQPKGSLKLSCAVSGITFKTNAMNWVRQAPGKGLEWVARIRTKSYNYATYYADSVKDRFTISRDDSQSILYLQMNNLKTEDTAMYHCVREGRWGQGTLVTVSA
VL: QAVVTQESALTTSPGETVTLTCRSSTGAVTTSNYANWVQEKPDHLFTGLIGGTNNRPPGVPARFSGSLIGDKAALTITGAQIEDEAIYFCALWYSNHLVFGGGTKLTVL
notes: also called anti-IL-8RB antibody
IC50 [1]: 22 nM
Kd [2]: 4.1 nM
binding result [3]: no binding (tested: 1e-6 M)
EC50 (read off the curve) [4]: ~4 nM
binding result [5]: no binding (tested: about 5e-7 M)
